Here are results for one molecule from patent publication US20180289832A1 (MAGENTA THERAPEUTICS, published 2018).

Assay [1] addresses T1, human CD137 (hCD137) stably over-expressed on Jurkat cells (human, UniProt Q07011 24-255).
T1 construct: also called 4-1BB; TNFRSF9
Nature of the assay: flow cytometry on Jurkat cells stably over-expressing hCD137; titration of the primary antibody 4 h at 4 °C, secondary anti-mouse AF488, gMFI. Here is the method:
(§1) Jurkat cells (i.e., an immortalized human T lymphocyte cell line) characterized by stable, over-expression of hCD137 were plated at 20,000 cells/well and stained with a titration of primary murine anti-CD137 antibody BBK2 (BBK2-mIgG1) for 4 hours at 4° C. Secondary anti-mouse AF488 stain, at a constant amount, was added for 30 minutes at 4° C. After washing, plates were run on a flow cytometer and binding of BBK2-mIgG1 (and the negative control, i.e., mIgG1) was determined based on geometric mean fluorescence intensity in the AF488 channel.
A general note: A flow cytometer gives signals particle by particle.

The target of assay [2] is T1, human CD137 (hCD137) stably …. Kind of assay: flow cytometry on Jurkat cells over-expressing hCD137; antibody titration 4 h at 4 C, anti-mouse AF488 secondary, geometric MFI. The protocol:
as §1

T1 sequence (Q07011 24-255 limits assumed): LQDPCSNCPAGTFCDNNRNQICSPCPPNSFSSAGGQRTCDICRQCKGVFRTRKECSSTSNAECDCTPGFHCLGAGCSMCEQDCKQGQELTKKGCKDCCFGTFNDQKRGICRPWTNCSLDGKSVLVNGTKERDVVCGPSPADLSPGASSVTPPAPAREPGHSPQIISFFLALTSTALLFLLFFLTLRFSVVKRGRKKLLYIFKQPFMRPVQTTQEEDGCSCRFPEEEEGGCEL

B1: murine anti-CD137 antibody BBK2 (BBK2-mIgG1) (antibody, V domains shown)
VH: QVQLQQPGAELVRPGASVKLSCKASGYTFTSYWINWVKQRPGQGLEWIGNIYPSDSYTNYNQKFKDKATLTVDKSSNTVYMQLNSPTSEDSAVYYCTRNGVEGYPHYYAMEYWGQGTSVTVSS
VL: DIQMTQTTSALSASLGDRVTIGCRASQDLSNHLYWYQQKPDGTVKLLIYYTSRLHSGVPSRFSGSGSGTDYSLTIRNLEQEDVATYFCQQGYTLPYTFGGGTKLEIK
notes: Mouse monoclonal IgG1, kappa (Thermo Fisher); also called BBK-mIgG1; murine BBK2
Regarding B1, the EC50 in assay [1] came out at 35 pM; in assay [2], 35 µM.

By EC50 is commonly meant the midpoint of the concentration-response curve. The low end stands for greater potency, the high end for weaker potency.
